The results in this text go back to article PMC5124697, “Expression Profiles and DNA-Binding Affinity of Five ERF Genes in Bunches of Vitis vinifera cv. Cardinal Treated with High Levels of CO2 at Low Temperature”.

Among the targets are VviERF6L7-c (Vitis vinifera cv. Cardinal, UniProt A0A1L6BXF1 1-277); VviERF10-c (Vitis vinifera cv. Cardinal, UniProt F6HIF5 1-204); VviERF2-c (Vitis vinifera cv. Cardinal, UniProt A0A1L6BXE6 1-282); VviERF11-c (Vitis vinifera cv. Cardinal, UniProt A0A1L6BXF0 1-220); VviERF069-c (Vitis vinifera cv. Cardinal, UniProt A0A1L6BXE7 1-285).
Assay in all cases: EMSA; EMSA: 2 ug protein in 20 ul, 80 nM biotin probe, 50 ng/ul poly(dI-dC), 2.5% glycerol, 1x binding buffer (composition and pH not given), room temperature 20 min; 6% native PAGE, 0.5x TBE; competition 500x unlabeled probe (50 uM unlabeled DNA listed)
What all share (details): protein: recombinant; tags: N-terminal His (pTrcHisA); label: 3' biotin

VviERF11-c, sequence (A0A1L6BXF0 entry or part of it): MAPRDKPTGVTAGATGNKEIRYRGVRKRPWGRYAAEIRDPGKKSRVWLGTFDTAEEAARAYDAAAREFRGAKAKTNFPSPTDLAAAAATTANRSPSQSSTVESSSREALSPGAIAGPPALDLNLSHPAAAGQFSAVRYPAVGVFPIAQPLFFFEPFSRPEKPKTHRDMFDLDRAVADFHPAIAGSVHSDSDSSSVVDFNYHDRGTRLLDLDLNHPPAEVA
VviERF2-c, sequence (A0A1L6BXE6 entry or part of it): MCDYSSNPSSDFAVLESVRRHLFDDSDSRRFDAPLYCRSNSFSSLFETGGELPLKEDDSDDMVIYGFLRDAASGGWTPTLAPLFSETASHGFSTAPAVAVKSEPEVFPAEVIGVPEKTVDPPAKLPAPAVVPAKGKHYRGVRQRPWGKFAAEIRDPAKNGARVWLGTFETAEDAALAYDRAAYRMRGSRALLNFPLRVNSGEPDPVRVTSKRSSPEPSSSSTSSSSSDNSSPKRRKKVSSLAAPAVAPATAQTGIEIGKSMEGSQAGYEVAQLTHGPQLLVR
VviERF6L7-c, sequence (A0A1L6BXF1 entry or part of it): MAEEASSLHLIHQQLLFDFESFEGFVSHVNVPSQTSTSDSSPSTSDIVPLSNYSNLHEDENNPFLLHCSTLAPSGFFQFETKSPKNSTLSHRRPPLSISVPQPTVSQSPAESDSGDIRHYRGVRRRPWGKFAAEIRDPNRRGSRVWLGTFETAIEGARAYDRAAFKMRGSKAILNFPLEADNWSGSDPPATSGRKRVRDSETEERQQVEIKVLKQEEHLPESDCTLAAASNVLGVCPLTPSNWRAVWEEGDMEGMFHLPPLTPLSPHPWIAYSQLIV
VviERF069-c, sequence (A0A1L6BXE7 entry or part of it): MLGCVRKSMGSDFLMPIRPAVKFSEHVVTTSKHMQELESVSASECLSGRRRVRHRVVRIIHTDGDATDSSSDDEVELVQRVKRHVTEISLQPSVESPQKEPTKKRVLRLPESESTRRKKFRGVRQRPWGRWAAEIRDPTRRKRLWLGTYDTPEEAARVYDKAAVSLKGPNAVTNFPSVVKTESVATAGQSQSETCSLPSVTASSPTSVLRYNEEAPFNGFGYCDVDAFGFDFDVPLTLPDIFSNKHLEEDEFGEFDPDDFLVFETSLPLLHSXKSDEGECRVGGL
VviERF10-c, sequence (F6HIF5 entry or part of it): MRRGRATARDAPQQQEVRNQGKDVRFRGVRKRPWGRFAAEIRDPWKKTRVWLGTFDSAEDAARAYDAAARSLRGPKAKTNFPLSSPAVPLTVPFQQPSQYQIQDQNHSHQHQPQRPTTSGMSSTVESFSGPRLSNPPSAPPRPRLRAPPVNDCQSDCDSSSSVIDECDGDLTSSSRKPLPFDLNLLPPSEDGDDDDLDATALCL

B1: Le-osmo GCC box (dsDNA)
DNA 1: AAAAGCCGCCACAC
DNA 2: GTGTGGCGGCTTTT
Regarding B1, the binding result in the data set with VviERF6L7-c, in the data set with VviERF10-c, with VviERF2-c, with VviERF11-c and with VviERF069-c was “no binding” each time.

B2: Vcgns1 GCC box (dsDNA)
DNA 1: TGGAGCCGCCGGGA
DNA 2: TCCCGGCGGCTCCA
Consider B2, for which the binding result in the data set with VviERF6L7-c was “no binding”.

B3: Vcchit1b GCC box (dsDNA)
DNA 1: AAAAGCCGCCCACG
DNA 2: CGTGGGCGGCTTTT
B3: the binding result with VviERF2-c and with VviERF11-c was “binds” throughout.

B4: Nt-chit GCC box (dsDNA)
DNA 1: AAGAGCCGCCACTA
DNA 2: TAGTGGCGGCTCTT
Turning to B4, the binding result with VviERF6L7-c, in the data set with VviERF10-c, with VviERF2-c, in the data set with VviERF11-c and with VviERF069-c was “no binding” throughout.
